Assays:
[1] = target: full-length human SOX2 (human) (UniProt P48431); assay: BLI; SOX2 (0.2 mg/ml) immobilised on an AR2G chip, quenched with 1 M ethanolamine; p300 fragments in PBS; global fit to a 1:1 binding model (BLItz Pro v.1.2.1.5)
SOX2DBD (human) = SOX2DBD (human) (UniProt P48431); assay: EMSA; details: EMSA: 10 mM HEPES-NaOH pH 7.3, 50 mM KCl, 5 mM MgCl2, 0.5 mM DTT, 5% glycerol, 0.5 mg/ml BSA; 1 h incubation; 1 nM DNA (Fig 2B); 4% native PAGE, 0.5x TBE, 4 C
SOX2 mutant E78A (human) = SOX2 mutant E78A (human) (UniProt P48431)
SOX2 mutant E78A (human), sequence (P48431 whole entry E78A): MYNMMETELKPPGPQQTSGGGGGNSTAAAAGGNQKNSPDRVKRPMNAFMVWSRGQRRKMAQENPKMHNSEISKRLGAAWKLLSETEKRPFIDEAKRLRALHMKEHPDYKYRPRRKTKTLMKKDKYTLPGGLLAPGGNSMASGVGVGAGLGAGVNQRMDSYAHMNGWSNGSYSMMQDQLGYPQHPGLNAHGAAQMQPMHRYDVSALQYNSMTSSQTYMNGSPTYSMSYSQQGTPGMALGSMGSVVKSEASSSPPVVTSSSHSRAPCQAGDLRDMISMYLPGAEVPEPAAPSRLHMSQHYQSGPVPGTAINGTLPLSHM

SOX2 mutant E86A (human) = SOX2 mutant E86A (human) (UniProt P48431)
SOX2 mutant E86A (human), sequence (P48431 whole entry E86A): as the sequence (P48431 whole entry E78A) above, with A78E, E86A counted along it

p300 full length (human) = p300 full length (human) (UniProt Q09472); assay: EMSA; details: EMSA: 10 mM HEPES-NaOH pH 7.3, 50 mM KCl, 5 mM MgCl2, 0.5 mM DTT, 5% glycerol, 0.5 mg/ml BSA; 1 h incubation; 1 nM DNA (Fig 2B); 4% native PAGE, 0.5x TBE, 4 C
p300 full length (human), sequence (Q09472 whole entry): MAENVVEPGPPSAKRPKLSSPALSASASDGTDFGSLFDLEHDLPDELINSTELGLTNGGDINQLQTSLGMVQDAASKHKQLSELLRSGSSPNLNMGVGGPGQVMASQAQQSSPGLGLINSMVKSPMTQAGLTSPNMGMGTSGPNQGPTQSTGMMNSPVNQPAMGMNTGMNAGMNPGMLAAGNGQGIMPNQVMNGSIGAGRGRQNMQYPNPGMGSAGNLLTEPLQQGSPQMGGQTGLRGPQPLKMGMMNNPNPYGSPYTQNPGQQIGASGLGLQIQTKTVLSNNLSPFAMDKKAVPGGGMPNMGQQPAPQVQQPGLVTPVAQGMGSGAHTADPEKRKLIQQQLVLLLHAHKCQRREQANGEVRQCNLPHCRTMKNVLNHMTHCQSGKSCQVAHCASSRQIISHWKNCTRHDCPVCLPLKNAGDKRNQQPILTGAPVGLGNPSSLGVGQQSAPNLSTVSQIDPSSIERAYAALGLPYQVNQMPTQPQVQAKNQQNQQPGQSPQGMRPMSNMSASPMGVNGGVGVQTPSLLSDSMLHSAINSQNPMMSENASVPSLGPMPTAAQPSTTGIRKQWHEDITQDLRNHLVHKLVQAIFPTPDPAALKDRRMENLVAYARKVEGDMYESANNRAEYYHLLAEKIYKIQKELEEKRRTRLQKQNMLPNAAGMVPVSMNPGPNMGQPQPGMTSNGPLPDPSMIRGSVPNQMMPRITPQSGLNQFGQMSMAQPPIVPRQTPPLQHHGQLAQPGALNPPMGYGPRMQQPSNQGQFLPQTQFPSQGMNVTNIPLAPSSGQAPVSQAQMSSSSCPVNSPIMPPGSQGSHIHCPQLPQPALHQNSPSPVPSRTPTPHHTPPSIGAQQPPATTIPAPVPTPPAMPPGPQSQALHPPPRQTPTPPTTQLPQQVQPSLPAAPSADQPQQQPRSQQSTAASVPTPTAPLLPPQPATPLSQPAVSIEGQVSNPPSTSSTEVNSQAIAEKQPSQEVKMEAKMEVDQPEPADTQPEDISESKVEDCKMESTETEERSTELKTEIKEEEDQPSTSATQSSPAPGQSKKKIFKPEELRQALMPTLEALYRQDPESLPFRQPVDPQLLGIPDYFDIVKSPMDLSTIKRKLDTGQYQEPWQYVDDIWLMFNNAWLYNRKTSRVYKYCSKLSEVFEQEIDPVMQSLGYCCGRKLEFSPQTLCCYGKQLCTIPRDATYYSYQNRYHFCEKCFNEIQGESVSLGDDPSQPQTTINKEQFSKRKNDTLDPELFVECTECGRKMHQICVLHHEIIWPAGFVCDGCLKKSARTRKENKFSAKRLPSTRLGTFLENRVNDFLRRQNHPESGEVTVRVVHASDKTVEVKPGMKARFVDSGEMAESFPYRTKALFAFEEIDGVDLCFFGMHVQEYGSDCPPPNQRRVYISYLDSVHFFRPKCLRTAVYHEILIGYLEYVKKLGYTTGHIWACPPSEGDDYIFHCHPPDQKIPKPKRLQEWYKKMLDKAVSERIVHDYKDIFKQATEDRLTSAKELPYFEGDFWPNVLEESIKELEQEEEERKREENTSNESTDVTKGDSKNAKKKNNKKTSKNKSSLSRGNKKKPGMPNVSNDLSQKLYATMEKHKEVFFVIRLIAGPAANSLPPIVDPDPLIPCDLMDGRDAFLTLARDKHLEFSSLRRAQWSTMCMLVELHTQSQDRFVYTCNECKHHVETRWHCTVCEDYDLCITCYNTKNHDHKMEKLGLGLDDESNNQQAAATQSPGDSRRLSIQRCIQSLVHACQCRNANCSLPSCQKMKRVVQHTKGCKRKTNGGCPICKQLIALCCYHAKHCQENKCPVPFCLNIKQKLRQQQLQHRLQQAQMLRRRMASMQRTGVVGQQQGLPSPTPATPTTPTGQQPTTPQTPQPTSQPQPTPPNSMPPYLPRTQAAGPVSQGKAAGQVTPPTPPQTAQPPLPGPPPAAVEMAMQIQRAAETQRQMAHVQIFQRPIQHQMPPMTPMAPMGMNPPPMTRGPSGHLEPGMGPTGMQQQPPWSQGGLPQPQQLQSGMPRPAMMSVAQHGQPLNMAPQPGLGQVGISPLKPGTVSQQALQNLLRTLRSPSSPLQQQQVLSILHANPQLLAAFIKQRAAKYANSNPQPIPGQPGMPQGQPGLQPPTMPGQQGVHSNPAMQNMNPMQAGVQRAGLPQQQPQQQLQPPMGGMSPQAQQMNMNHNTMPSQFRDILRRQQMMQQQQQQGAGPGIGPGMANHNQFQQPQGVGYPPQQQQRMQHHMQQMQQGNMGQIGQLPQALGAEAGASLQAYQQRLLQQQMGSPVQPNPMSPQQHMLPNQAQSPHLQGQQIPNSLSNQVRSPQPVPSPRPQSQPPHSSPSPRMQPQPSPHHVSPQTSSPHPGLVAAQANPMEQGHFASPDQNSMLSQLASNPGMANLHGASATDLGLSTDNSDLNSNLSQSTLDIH

full-length human SOX2 (human), sequence (P48431 whole entry, the tested form may be a part): as the sequence (P48431 whole entry E78A) above, with A78E counted along it
SOX2DBD (human), sequence (P48431 39-127): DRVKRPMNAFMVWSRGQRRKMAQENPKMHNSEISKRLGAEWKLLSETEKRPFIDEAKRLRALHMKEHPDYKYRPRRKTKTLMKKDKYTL

Q: Which Kd [1] does the source give for “p300 KIX domain (aa 566-646) (from UniProt Q09472 566-646) (domain or fragment)” here?
A: Its Kd is 2680 nM.

Q: And the koff [1]?
A: The koff was 0.0469 s⁻¹.

Q: And the kon [1]?
A: Its kon is 12300 M⁻¹ s⁻¹.

Q: For “GTAGTCCTTGCATGTCCCGGAACTTGCTATGTAGATCAGGCTAAAGTCTAACTCAGACTTCCACCACCTCTCAGGGTGTGCGGCCCCAAGATAAGAAGATATTCAAAAGAGGCACCTGAGTCTCTCAATCTGACTATCAATAGAATTGAAATCAATTGGAATAATGGACCGC (double strand) [dSM]”, which binding (SOX2DBD (human)) is on record?
A: Its binding is “no binding”.

Q: Which results are given for “full-length p300 (Protein One), Q09472 1-2414”?
A: luciferase activity of pGL3-SM in cells expressing the SOX2 mutant, relative to wild-type SOX2 (SOX2 mutant E78A (human)): 30%; luciferase activity of pGL3-SM in cells expressing the SOX2 mutant, relative to wild-type SOX2 (SOX2 mutant E86A (human)): 30%

Q: For “GCGGTCCATTATTCCAATTGATTTCAATTCTATTGATAGTCAGATTGAGAGACTCAGGTGCCTCTTTTGAATATCTTCTTTTGTTGGGGCCGCACACCCTGAGAGGTGGTGGAAGTCTGAGTTAGACTTTAGCCTGATCTACATAGCAAGTTCCGGGACATGCAAGGACTAC (double strand) [SM]”, which binding signal (SOX2DBD (human)) is on record?
A: Its binding signal is 71 % bound.

Q: What about the binding (p300 full length (human)) of the same substance?
A: The binding was “no binding”.
